Results on 2 substances are retold here after paper PMC6753080.

The target of assay [1] is 6xHis-MBP-ERC1 fusion protein (mouse). The experiment in a line: static light scattering; purified ERC1 on a Viskotek TDAMax system; data averaged across the protein elution volume; protein purified in 20 mM HEPES pH 7.4, 250 mM NaCl, 0.5 mM TCEP.
Assay [2] has the same target. The experiment in a line: rotary shadowing electron microscopy; purified MBP-ERC1 diluted in spraying buffer (100 mM ammonium acetate, 30% glycerol), sprayed onto mica, platinum and carbon coated.
In the next assay the target is GFP-ERC1 (mouse). The experiment in a line: Numbers & Brightness; cytoplasm of living COS7 cells expressing GFP-ERC1; brightness compared with monomeric and dimeric GFP; confocal time series of 300 images.

Sequence of GFP-ERC1 (Q99MI1 whole entry): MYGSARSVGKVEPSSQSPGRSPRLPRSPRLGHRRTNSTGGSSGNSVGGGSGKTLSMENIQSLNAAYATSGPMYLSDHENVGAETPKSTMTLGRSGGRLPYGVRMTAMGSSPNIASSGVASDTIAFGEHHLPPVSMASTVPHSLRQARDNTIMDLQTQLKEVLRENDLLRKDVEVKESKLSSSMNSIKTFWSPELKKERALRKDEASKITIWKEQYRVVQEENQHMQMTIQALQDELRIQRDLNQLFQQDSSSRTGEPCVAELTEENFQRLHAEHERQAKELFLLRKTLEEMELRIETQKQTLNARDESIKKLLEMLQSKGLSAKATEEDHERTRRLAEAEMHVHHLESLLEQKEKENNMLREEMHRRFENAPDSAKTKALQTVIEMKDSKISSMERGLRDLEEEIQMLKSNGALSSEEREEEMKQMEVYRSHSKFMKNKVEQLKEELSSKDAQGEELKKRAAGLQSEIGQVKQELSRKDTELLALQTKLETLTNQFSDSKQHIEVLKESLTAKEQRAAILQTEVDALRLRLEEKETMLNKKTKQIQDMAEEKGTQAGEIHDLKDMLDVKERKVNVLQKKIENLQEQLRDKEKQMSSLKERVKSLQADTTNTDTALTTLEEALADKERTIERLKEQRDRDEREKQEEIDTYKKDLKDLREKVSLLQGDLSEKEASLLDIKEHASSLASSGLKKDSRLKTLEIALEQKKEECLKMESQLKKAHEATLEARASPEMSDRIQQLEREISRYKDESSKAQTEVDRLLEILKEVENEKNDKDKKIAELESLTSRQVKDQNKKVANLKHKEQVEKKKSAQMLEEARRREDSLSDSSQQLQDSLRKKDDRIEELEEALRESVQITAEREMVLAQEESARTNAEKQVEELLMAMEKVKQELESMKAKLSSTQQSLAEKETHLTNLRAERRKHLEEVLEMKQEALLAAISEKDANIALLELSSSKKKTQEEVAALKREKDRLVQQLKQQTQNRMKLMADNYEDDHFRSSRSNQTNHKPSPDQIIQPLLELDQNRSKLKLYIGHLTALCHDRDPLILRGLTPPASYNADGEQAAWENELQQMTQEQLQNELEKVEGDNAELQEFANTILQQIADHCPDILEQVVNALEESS

Turning to “6xHis-MBP-ERC1 fusion protein (natural protein)”, the stoichiometry N in assay [1] and in assay [2] was 2 throughout.

With GFP-ERC1 (natural protein), in the assay with GFP-ERC1 (mouse), the brightness ratio to monomeric GFP was found to be 2.1 and the stoichiometry N is 2.

What is called stoichiometry N is the number of molecules, sites or subunits per partner or assembly.
